Results: publication PMC4195752, “The Structure of an LIM-Only Protein 4 (LMO4) and Deformed Epidermal Autoregulatory Factor-1 (DEAF1) Complex Reveals a Common Mode of Binding to LMO4” (PLoS ONE, 2014)

Target: T1, LMO4 second LIM domain, residues 77-147 (in the tethered complex) (mouse, UniProt P61969 77-147)
T1 construct: LMO4, mouse, LIM2 domain, residues 77-147; also called LMO4_(LIM2); LMO4_(77–147)
T1 sequence (looked up): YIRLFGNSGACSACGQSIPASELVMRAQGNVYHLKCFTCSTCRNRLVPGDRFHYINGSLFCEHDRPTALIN
Assay: NMR solution structure; the two domains tethered on one chain by a glycine-serine linker; 20 mM sodium acetate pH 5.0, 35 mM NaCl, 0.5 mM TCEP-HCl
Details: both partners purified

binding result: binds
B1: DEAF1 residues 404-418 (in the tethered complex) (peptide, UniProt Q9Z1T5-1 404-418, looked up)
chain: IAPFPEAALPTSHPK
notes: Stood in the assay joined through a glycine-serine linker to the C-terminus of LMO4 77-147 on one chain; also called the DEAF1 peptide
